One molecule from publication PMC8860585, “TRIM21 suppresses CHK1 activation by preferentially targeting CLASPIN for K63-linked ubiquitination” (Nucleic Acids Research, 2022) can be followed below.

This assay deals with T1, HIS-TRIM21 (human, UniProt P19474 1-475).
T1 construct: human TRIM21 cDNA (full length cDNA by the plasmid paragraph) cloned into pET28a; source: bacterially purified (pET28a)
Briefly: pull-down; GST-CLASPIN 301–630aa immobilized on Glutathione Sepharose 4B beads incubated with HIS-TRIM21 for 4 h at 4°C; HIS-TRIM21 by immunoblot. The following applies: both partners purified. In general terms: A western blot detects proteins with antibodies after separation by electrophoresis.

T1 sequence (P19474 whole entry): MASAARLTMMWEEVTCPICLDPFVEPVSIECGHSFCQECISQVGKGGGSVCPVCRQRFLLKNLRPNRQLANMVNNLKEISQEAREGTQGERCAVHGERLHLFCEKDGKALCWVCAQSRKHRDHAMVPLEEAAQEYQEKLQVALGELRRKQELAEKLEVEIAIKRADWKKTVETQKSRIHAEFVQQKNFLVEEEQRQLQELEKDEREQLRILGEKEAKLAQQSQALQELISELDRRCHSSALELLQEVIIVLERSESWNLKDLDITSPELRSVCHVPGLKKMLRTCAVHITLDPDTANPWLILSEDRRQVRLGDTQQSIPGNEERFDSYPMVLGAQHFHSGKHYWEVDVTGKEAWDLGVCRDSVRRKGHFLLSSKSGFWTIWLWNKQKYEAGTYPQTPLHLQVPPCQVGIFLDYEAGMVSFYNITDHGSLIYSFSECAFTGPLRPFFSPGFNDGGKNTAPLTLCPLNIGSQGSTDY

B1: GST-CLASPIN 301–630aa (domain or fragment, human, UniProt Q9HAW4 301-630, looked up)
chain: ALNLPYHMPENKTIHDFFKRKPRPTCHGNAMALLKSSKYQSSHHKEIIDTANTTEMNSDHHSKGSEQTTGAENEVETNALPVVSKETQIITGSDESCRKDLVKNEELEIQEKQKQSDIRPSPGDSSVLQQESNFLGNNHSEECQVGGLVAFEPHALEGEGPQNPEETDEKVEEPEQQNKSSAVGPPEKVRRFTLDRLKQLGVDVSIKPRLGADEDSFVILEPETNRELEALKQRFWKHANPAAKPRAGQTVNVNVIVKDMGTDGKEELKADVVPVTLAPKKLDGASHTKPGEKLQVLKAKLQEAMKLRRFEERQKRQALFKLDNEDGFEE
notes: human CLASPIN F2 region, residues 301–630; also called GST fusion of the CLASPIN F2 region (301–630aa); source: bacterially purified (pGEX4T-1), immobilized on Glutathione Sepharose 4B
On to B1, for which the binding result is listed as “binds”.
